The values below come from article PMC1762332, “Catalases Are NAD(P)H-Dependent Tellurite Reductases” (PLoS ONE, 2006).

Substrate in the series: O=[Te](O)O
Nature of the series: purified protein. The note with it: NADPH 10 mM (50 µl of 0.2 M in 1 ml), Tris-HCl pH 8.0 (50 mM), aerobic.

B1: bovine liver catalase (Bos taurus) (protein)
chain: ADNRDPASDQMKHWKEQRAAQKPDVLTTGGGNPVGDKLNSLTVGPRGPLLVQDVVFTDEMAHFDRERIPERVVHAKGAGAFGYFEVTHDITRYSKAKVFEHIGKRTPIAVRFSTVAGESGSADTVRDPRGFAVKFYTEDGNWDLVGNNTPIFFIRDALLFPSFIHSQKRNPQTHLKDPDMVWDFWSLRPESLHQVSFLFSDRGIPDGHRHMNGYGSHTFKLVNANGEAVYCKFHYKTDQGIKNLSVEDAARLAHEDPDYGLRDLFNAIATGNYPSWTLYIQVMTFSEAEIFPFNPFDLTKVWPHGDYPLIPVGKLVLNRNPVNYFAEVEQLAFDPSNMPPGIEPSPDKMLQGRLFAYPDTHRHRLGPNYLQIPVNCPYRARVANYQRDGPMCMMDNQGGAPNYYPNSFSAPEHQPSALEHRTHFSGDVQRFNSANDDNVTQVRTFYLKVLNEEQRKRLCENIAGHLKDAQLFIQKKAVKNFSDVHPEYGSRIQALLDKYNEEKPKNAVHTYVQHGSHLSAREKANL
On to B1, for which the Km worked out at 900 µM.
